{"source": "paper PMC7062162", "key": {"[1]": {"molecular_target": "L4G peptide-DR1 complex (human)"}, "[2]": {"molecular_target": "L4R peptide-DR1 complex (human)"}, "[3]": {"molecular_target": "L4G′ peptide-DR1 complex (human)"}, "[4]": {"molecular_target": "OPT1 Y1A peptide-DR1 complex (human)"}, "[5]": {"molecular_target": "0410 Y1A peptide-DR1 complex (human)"}, "[6]": {"molecular_target": "Y1I peptide-DR1 complex (human)"}, "[7]": {"molecular_target": "A6G peptide-DR1 complex (human)"}, "[8]": {"molecular_target": "A6E peptide-DR1 complex (human)"}, "[9]": {"molecular_target": "I9E peptide-DR1 complex (human)", "assay": "fluorescence polarisation; real-time fluorescence anisotropy of Alexa Fluor 488-peptide leaving DR1 (50 nM complex) with titrated HLA-DM (up to 90 μM) and 20 μM unlabeled competitor peptide; 250 mM citrate, 150 mM NaCl, pH 5.0, 37 °C; kobs fitted to a Michaelis-Menten model, Km taken as Kd of DM for the pMHCII (OPT1-DR1: initial velocities, Lineweaver-Burk)"}}}
{"substance": "soluble recombinant HLA-DM (DMA*0101/DMB*0101) (complex)", "values": [{"measurement": "kcat, fold change against OPT1-DR1", "setting": "[1]", "result": "> 120", "unit": "fold"}, {"measurement": "kcat, fold change against OPT1-DR1", "setting": "[2]", "result": "> 1300", "unit": "fold"}, {"measurement": "kcat, fold change against the I9E complex", "setting": "[3]", "result": 510, "unit": "fold"}, {"measurement": "kcat, fold change against OPT1-DR1", "setting": "[4]", "result": "> 2600", "unit": "fold"}, {"measurement": "kcat, fold change against the 0410 complex", "setting": "[5]", "result": 8, "unit": "fold"}, {"measurement": "kcat, fold change against the homologous complex with Tyr at P1", "setting": "[6]", "result": 18, "unit": "fold"}, {"measurement": "kcat, fold change against OPT1-DR1", "setting": "[7]", "result": 2, "unit": "fold"}, {"measurement": "kcat, fold change against OPT1-DR1 (A6E)", "setting": "[8]", "result": "> 200", "unit": "fold"}, {"measurement": "kcat, fold change against the A6G complex (G6E)", "setting": "[8]", "result": "> 100", "unit": "fold"}, {"measurement": "fold decrease in Km against the homologous complex with Ile at P9", "setting": "[9]", "result": 9, "unit": "fold"}]}
